Measured values taken from US6890726, “Method for selecting recombinase variants with altered specificity” (Oklahoma Medical Research Foundation).

How the values were obtained:
Settings in all cases: chain copies: 4
Cre R3M2 (mxoxox 2) = molecular target: T1, Cre R3M2 (mxoxox 2) (UniProt P06956 SEQ:1-343); assay: cell_activity; E. coli
T1 chain: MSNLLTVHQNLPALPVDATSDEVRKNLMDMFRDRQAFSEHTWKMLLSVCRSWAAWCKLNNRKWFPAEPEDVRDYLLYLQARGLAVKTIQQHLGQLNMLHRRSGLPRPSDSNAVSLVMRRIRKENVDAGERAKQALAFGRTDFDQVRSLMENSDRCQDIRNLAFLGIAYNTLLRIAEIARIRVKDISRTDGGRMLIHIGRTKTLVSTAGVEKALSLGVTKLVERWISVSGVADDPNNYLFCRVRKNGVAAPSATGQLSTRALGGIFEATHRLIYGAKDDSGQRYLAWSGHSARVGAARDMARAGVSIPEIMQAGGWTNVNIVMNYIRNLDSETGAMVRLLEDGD

Cre R3M1 (mxoxox 1) = molecular target: T2, Cre R3M1 (mxoxox 1) (UniProt P06956 SEQ:1-343); assay: cell_activity; E. coli
T2 chain: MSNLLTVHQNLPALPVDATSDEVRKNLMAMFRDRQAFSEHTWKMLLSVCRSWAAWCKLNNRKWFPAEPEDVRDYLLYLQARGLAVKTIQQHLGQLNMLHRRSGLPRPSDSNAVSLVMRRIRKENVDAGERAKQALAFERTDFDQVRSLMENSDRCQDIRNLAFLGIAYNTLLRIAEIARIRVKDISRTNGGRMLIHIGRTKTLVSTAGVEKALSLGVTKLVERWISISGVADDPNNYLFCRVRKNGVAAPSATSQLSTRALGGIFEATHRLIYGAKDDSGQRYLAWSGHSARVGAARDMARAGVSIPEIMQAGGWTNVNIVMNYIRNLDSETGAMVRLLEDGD

Cre R3M3 (mxoxox 3) = molecular target: T3, Cre R3M3 (mxoxox 3) (UniProt P06956 SEQ:1-343); assay: cell_activity; E. coli
T3 chain: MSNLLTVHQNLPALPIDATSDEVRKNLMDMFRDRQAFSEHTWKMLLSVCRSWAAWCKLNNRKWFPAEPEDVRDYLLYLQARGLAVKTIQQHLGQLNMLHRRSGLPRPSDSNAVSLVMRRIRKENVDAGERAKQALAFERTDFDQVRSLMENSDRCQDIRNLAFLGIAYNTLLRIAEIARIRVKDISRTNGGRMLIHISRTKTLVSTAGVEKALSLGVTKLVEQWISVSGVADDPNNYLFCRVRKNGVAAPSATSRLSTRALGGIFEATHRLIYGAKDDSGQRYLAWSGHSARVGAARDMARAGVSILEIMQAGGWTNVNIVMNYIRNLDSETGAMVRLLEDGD

Cre E262W = Cre E262W (UniProt P06956 P06956:1-343, E262W); assay: cell_activity; similar to E262G
Excerpt: (§1) The three defined Cre mutants for the amino acid position 262 were subjected to a functional test for loxK2, loxK1 and loxP recombination activity, as mentioned before. […] To conclude, this final experiment provides the necessary evidence that the E262G mutation presents the basis for the observed decrease in specificity of Cre. However, additional mutations seem to be helpful to increase the newly obtained activity further. In addition, glycine at position 262 is not the only possible residue to permit a remarkable increase in loxK2 activity.
(§2) The results of functional testing of three defined Cre mutants for position 262 compared to wt Cre are listed. All enzymes were checked on loxK2, loxP and loxK1 recombination in the selection strains BS1494, BS1493 and the control strain BS1541. In the first column the Cre candidate is indicated, in the second the allowed time for cre expression. The three following columns show the calculated percentages of Kan^R when subjecting the different Cre mutants and wt Cre to the three selection strains. The frequency of the observed Kan^R phenotype is considered as an indicator for the frequency of […] recombination: On loxK2, E262G and E262W show approximately an 10^3 fold increased Kan^R frequency compared to wt Cre, whereas E262A results in a 200 fold increase. […]

Cre E262A = Cre E262A (UniProt P06956 P06956:1-343, E262A); assay: cell_activity; E. coli
Excerpt: as §1, §2

B1: loxK2 (selection plasmid pBS584) (dsDNA)
DNA 1: GATACAACGTATATACCTTTCTATACGTTGTATT
DNA 2: AATACAACGTATAGAAAGGTATATACGTTGTATC
B1 gave an activity (Cre R3M2 (mxoxox 2)) of ~50 % recombination, an activity (Cre R3M1 (mxoxox 1)) of ~50 % recombination and an activity (Cre R3M3 (mxoxox 3)) of ~50 % recombination. For the same binder, the activity (Cre E262W) was ~1000 fold vs wt and the activity (Cre E262A) was 200 fold vs wt.
